# Square brackets hold non-standard residues; d marks the D form. Ends that are not written are not given here. * marks the point of attachment. Myristoyl = CCCCCCCCCCCCCC(=O)*; pS = N[C@@H](COP(=O)(O)O)C(=O)O
# B1: L807 (peptide)
# peptide: KEAPPSPPQ[pS]P
# B2: L803 (peptide)
# peptide: KEAPPAPPQ[pS]P
# B3: L803-mts (peptide)
# peptide: Myristoyl-GKEAPPAPPQ[pS]P
# Target: Bacterially expressed Purified GSK-3β Wild-Type (WT) (human, UniProt P49841 1-420)
# Test: cell-based or functional assay
# Sequence of Bacterially expressed Purified GSK-3β Wild-Type (WT) (P49841 other isoform, or with tags, fused parts or gaps limits assumed): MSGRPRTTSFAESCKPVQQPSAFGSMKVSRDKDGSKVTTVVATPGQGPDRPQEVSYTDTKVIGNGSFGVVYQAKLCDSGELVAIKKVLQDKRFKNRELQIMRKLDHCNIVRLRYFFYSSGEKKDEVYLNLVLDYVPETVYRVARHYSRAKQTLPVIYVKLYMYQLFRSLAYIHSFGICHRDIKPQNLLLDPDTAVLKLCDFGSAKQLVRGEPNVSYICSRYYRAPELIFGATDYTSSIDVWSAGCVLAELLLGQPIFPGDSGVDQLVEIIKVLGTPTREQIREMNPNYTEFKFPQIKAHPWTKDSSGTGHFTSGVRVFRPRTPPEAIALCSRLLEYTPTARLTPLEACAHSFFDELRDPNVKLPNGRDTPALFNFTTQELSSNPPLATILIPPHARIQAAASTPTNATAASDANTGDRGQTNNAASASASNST
row,Binder,"IC50, inhibition of GSK-3β phosphorylation of pIRS-1 (in vitro kinase assay) [µM]"
1,B1,16
2,B2,200
3,B3,40

# — patent US20160200763A1 (RAMOT AT TEL AVIV UNIVERSITY, published 2016)
